Target: EphA2 ligand-binding domain, untagged (UniProt P29317)
Test: SEC

Sequence of EphA2 ligand-binding domain, untagged (P29317 24-206): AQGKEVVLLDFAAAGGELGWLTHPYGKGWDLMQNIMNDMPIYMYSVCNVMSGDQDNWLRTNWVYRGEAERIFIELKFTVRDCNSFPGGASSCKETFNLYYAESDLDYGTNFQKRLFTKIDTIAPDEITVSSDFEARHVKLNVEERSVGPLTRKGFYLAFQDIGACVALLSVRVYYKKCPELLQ

B1: D2 scFv-6xHis (monomeric anti-EphA2 single-chain antibody) (scFv, V domains shown)
VH: EVQLLESGGGLVQPGGSLRLSCAASGFTFSRYWMHWVRQAPGKGLEWVSSISPYDGETNYADSVKGRFTISRDNSKNTLYLQMNSLRAEDTAVYYCARISEWYNWAVDVFDYWGQGTLVTVSS
VL: EIVLTQSPGTLSLSPGERATLSCRASQSVSSSNLAWYQQKPGQAPRLLIYGASSRATGVPDRFSGSGSGTDFTLTISRLEPEDFAVYYCQQSSSYPWTFGQGTKVEIK
  stoichiometry N: 1

— article PMC4335687 (Growth factors (Chur, Switzerland), 2014)
